Test results from PMC9926122.

Biological target: recombinant EB1 (HS-AFM and microtubule experiments) (human) (UniProt Q15691)
Sequence (Q15691 whole entry): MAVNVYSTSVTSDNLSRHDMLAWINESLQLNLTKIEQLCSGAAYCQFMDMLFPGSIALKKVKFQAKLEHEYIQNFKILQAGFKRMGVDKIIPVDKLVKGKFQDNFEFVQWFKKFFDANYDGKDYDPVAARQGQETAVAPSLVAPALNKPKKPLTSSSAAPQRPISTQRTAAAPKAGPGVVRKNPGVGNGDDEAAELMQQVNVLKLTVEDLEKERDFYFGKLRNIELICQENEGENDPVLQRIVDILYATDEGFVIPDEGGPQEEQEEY

Chain of 6xHis-tagged WT Ska1 (Q96BD8 whole entry): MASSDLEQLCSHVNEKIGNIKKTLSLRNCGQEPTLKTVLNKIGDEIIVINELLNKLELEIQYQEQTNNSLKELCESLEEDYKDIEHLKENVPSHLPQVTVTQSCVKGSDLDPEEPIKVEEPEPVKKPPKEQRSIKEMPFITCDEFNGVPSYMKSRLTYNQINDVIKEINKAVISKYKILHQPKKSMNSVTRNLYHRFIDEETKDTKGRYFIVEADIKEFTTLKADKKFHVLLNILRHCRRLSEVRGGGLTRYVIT

localization of Ska1 on prepolymerized MTs in vitro in the presence of EB1 (1 uM), fluorescence microscopy: WT Ska1 against Ska1 ΔSHLP (0.5 uM each): 1.6 fold
Substance: 6xHis-tagged WT Ska1 (from UniProt Q96BD8 1-255) (natural protein)
